Results as given in patent EP1601683B1.

Biological target: monoclonal anti-H2a antibody of hybridoma clone B9 (ECACC provisional accession number 04030801)
Experiment: competitive ELISA, B9 ascitic fluid preincubated overnight with free specific peptide, then added to the peptide-coated plate

% inhibition of the reaction: 81%
Binder: CEKRRNATGEVA [H2 carboxyterminal peptide (SEQ ID NO. 1, …)]
